Values quoted from earlier work as cited in PMC3577484.
pKd: −log10 of the molar value. Values joined by “and” are separate entries in the source; they are usually repeats but may differ in a detail not shown here. Equal entries are not always repeated.

Molecular target: insulin receptor (Xenopus laevis) (UniProt Q9PVZ4)
Assay: Scatchard radioligand binding

Chain of UniProt Q9PVZ4 (Q9PVZ4 759-1362): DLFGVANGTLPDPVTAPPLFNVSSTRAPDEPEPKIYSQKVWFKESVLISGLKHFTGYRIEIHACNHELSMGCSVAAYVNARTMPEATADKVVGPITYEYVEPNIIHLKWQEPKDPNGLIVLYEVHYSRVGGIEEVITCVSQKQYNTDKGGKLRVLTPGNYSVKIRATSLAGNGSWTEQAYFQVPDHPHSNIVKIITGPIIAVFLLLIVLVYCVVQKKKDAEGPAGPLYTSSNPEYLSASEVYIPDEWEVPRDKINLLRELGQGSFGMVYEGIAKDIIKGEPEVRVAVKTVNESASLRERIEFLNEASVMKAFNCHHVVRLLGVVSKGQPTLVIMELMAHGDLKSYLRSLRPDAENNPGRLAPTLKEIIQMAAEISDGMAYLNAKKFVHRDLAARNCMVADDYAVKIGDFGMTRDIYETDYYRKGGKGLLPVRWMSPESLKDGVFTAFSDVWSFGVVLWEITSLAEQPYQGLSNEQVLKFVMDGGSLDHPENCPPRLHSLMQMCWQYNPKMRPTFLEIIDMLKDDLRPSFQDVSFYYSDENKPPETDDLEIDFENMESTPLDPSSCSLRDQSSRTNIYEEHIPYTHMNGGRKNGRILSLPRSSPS
Chain of insulin (F8WCM5 25-54): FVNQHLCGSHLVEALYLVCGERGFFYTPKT
Chain of insulin (P01308 90-110, further chain): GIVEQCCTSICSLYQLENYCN

Substance: insulin (from UniProt P01308)
- pKd: 9.05 and 8.27
